This is an account of results in patent US20150031612A1 (YALE UNIVERSITY, published 2015).

In this experiment the target is T1, native, full length, EGFR (wtEGFR) (UniProt P00533 25-1210, limits assumed).
T1 construct: whole, on cells; The pull-down used cell lysates, not intact cells; the residue numbers used (L858R, T790M) fit human EGFR; also called wild type EGFR; Epidermal Growth Factor Receptor
Put plainly: streptavidin-bead pull-down from lysates of wtEGFR-transfected CHO-K1 cells, anti-EGFR immunoblot.

Bridge positions count the residues as written; N and C are the ends. Square brackets hold non-standard residues; d marks the D form. Ends that are not written are not given here. S5 = C=CCCC[C@](C)(N)C(=O)O

B1: ^BT1^S (biotinylated analog of T1^S) (peptide)
peptide: VRKRT[S5]RRL[S5]QERELVE
modifications: staple 6-10; also: biotinylated, site not given here
notes: Stapled form of T1, biotinylated for the pull-down
As for B1, the binding result was “no binding (tested: 25 µM)”.

For the molecule VRKRTLRRLLQERELVE (also: biotinylated, site not given here) [^BJM-WT (biotinylated analog of JM-WT)], the binding result was “no binding (tested: 25 µM)”.
